Reference: patent publication US9828589B2, “Acyltransferases and uses thereof in fatty acid production” (priority 2009, dated 2017)
“Also recorded” adds a separate entry of the source.

Experiments:
[1] = tested on: yeast mutant lacking LPAAT activity (knockout of the gene YDL052c); assay: LPAAT activity assay using yeast extracts (complementation, formation of phosphatidic acid); details: complements knockout strain; TLC, FIG. 1
Experimental: Microsomal isolations of these transformants and the wildtype yeast strain BY4742 (lane marked “+”) where incubated with ^14C-labeled oleic acid and lysophosphatidic acid (LPA). Thin layer chromatography was performed to separate lipid classes.
The next day, expression of the acyltransferase polypeptides can be induced by transferring the cells to fresh media containing 2% galactose, for example by inoculating 100 ml of fresh culture to an optical density (measure at 600 nm) of OD600=0.1. Cells are harvested after 24 h incubation at 28° C. by centrifugation at 3000×g for 5 min and resuspended in 1 ml resuspention buffer (25 mM Tris/HCL pH 7.6) and disrupted using acid washed zirconium bead (200 μm average diameter) in a mill (Resch, Germany) by three minutes agitation at 300 rpm. The supernatant is transferred to a fresh tube and centrifuged at 3000×g for 5 min. The obtained supernatant is the crude extract. Protein content is measured according to Bradford (Bradford, M. M. (1976), Anal. Biochem. Bd. 72, pp. 248-254) with bovine serum albumin as standard. Assay mixtures contain 50 μg of protein, 10 μl of 10 mM [^14C]-glycerole-3-phosphate (2000 dpm/nmol), 10 μl of 1 mM 18:1-CoA in assay buffer (25 mM Tris/HCL pH 7.6, 0.5 mg/ml BSA) to give a total volume of 100 μl. Samples are incubated for 10 min at 30° C. The assays are terminated by extraction of the lipids into chloroform according to Blight and Dyer (Bligh, E. G. and Dyer, W. J. (1959), Can. J. Biochem. Physiol. 37, pp. 911-917). Lipids are separated on thin layer chromatography (TLC) silica 60 plates (Merck) using chloroform/methanol/acetic acid/water (90:15:10:3), and autoradiographic pictures are taken using an instant imager (Packard).

[2] = tested on: [14C]-18:1-Lysophosphatidlycholine (-LPC) and acyl-CoA; assay: Determination of substrate specificity for LPLAT, lysophosphatidylcholine as acyl-acceptor (LPCAT assay); type: biochemical, Saccharomyces cerevisea; details: comparing FIG. 7 (10 mg/ml BSA) and FIG. 9 (0 mg/ml BSA)
Experimental: (§1) The specific activity of the enzymes LPLAT_18374 (Pi) and LPCAT_02075 (Pi) using the substrates indicated at the x-axis is gives as the amount (in nmol) of substrate/product consumed/produced in one minute per mg total protein and was determined as described in example 6. The specific activities measured for microsomal extracts of yeast harboring an empty vector (pYES2 ev) is shown as control.
as §1, with “AtLPCAT1-At1g12640, AtLPCAT2-At1g63050, BnLPCAT1” for “LPLAT_18374 (Pi)”, “BnLPCAT2” for “LPCAT_02075 (Pi)”

[3] = tested on: [14C]-18:1-LPA and acyl-CoA; assay: Determination of substrate specificity for LPAAT (yeast microsomal fraction); type: biochemical, Saccharomyces cerevisea; details: comparing FIG. 5 (10 mg/ml BSA) and FIG. 6 (0 mg/ml BSA)
Experimental: as §1, with “enzyme LPAAT_13842” for “enzymes LPLAT_18374 (Pi) and LPCAT_02075”, “5.” for “6.”, “(pYES2.1” for “(pYES2”
as §1, with “BnLPAAT2” for “LPLAT_18374 (Pi)”, “AtLPAAT2-At3g57650” for “LPCAT_02075 (Pi)”, “5.” for “6.”

Molecule | LPAAT activity (formation of phosphatidic acid, PA) [1] | selectivity towards the length and the desaturation state of the substrate fatty acid [2] | selectivity towards the length and the desaturation state of the substrate fatty acid [3]
LPLAT_18374 (Pi): acyltransferase from Phythophtora infestance, 558 amino acids, SEQ-ID 8, encoded by SEQ-ID 7 (protein, Phythophtora infestance) MSTTALLQASTSPPPSREPEYAALEQLEPPLSHAIDMGVKVSPSESAAIAGGVYVTASSSCGASTIKHNPFTYTTPVDTYEKAKMTILCLLGVPFIRFVLLLCVGILLVIVSHLALIGYKPLDAHSGARPPLPRWRRIVGSPVPYLLRSLMLIVGYYWVPVKYPPNFNRHAMPRVIVSNHLTFFDGLYIFTLLSPSIAMKTDVANLPLISRIVQMIQPILIDRGTPEGRRRAMNDITSHVADPSKPPLLVFPEGTTSNQTVLCKFKVGSFVSGVPCQPVVLRYPYKHFDLSWPPGVSGLYLALRVLCQVYNRLEVEILPAYYPSERERKDPQLYAINVREVMAKALGVPTTNHAFEDVAMLMRVGDYATKHVVPLTDVGEVISLTALKRGDVDRLVGYFRRHDLDKDGHLSMQELRALFPNDDPVIVDQLFDLVDLDDSGLIDFRELCLALRALNPQNINEGDDALAKFAFRLYDLDNNGVIDASELEQLLRFQRNFYGVSEASVAAALRQAQAENTTGITYNRFEQLVLQNPEVLWYVRDKLEVLRGSMRESSLEIP | having LPAAT activity; also recorded: have LPAAT activity | not as selective as AtLPAAT1 or AtLPCAT2 or BnLPCAT1 or BnLPCAT2 | –
LPAAT_13842 (Pi): acyltransferase from Phythophtora infestance, 424 amino acids, SEQ-ID 12, encoded by SEQ-ID 11 (protein, Phythophtora infestance) MSFATPAQVLQDVRFEERFAEIESRLPATLALAKEGSLAKRNQTKRKLYHDSELIRIELEERLNELGIESQWVTAPEMKEANEKLDAVRKQLKLDVLPASSSPLEKIYMVVRMLTMVLVLVGWLSCVTVLIPLKWLNPVLKKMGVKKNYLPMDIVSWGTAFMVCVTACTDMKAEGVENLLNLKDSVVCMFSHSSNLDGFIVNGSSPIAFKFAAKKSIFLVPFLGWSSRWGFDFVAIDRSHRKSALKSLKELAVSVNEHGNSVCISPEGTRSKDGLLQEFKKGPFYLREDTKKNVVPSIVFGAYELWPPGRLFSIPGHTLVRYLPEYKSDPNLNRNQNRLALRRIYLKAFTEDVPDYIGTRVSTNFILKNMFYHYLAWAITFKVTSWALTVISLVLYWLNITYGTFMLFSLVMMVAGEALMFFTC | having LPAAT activity; also recorded: have LPAAT activity | – | not as selective as AtLPAAT2 and BnLPAAT2
